Source: article PMC6506550 (Nature Communications, 2019)

B1: CR9501 IgG (antibody, V domains shown)
VH: QVQLVQSGPGLVKPSQTLALTCTVSGASINSDNYYWTWIRQRPGGGLEWIGHISYTGNTYYTPSLKSRLSMSLETSQSQFSLRLTSVTAADSAVYFCAACGAYVLISNCGWFDSWGQGTQVTVSS
VL: EIVMTQSPSSLSASIGDRVTITCQASQDISTYLNWYQQKPGQAPRLLIYGASNLETGVPSRFTGSGYGTDFSVTISSLQPEDIATYYCQQYQYLPYTFAPGTKVEIK
notes: also called CF-647-labeled CR9501 IgG
B2: CR9501 Fab (Fab, V domains shown)
VH: B1 VH
VL: B1 VL

What was measured:
Test in all cases: flow cytometry on cells
[1] = biological target: full-length wild-type RSV F on the cell surface (respiratory syncytial virus (strain not stated)) (UniProt P03420)
[2] = biological target: T1, RSV F variant in which the cytoplasmic tail was replaced with a Foldon trimerization motif, on the cell … (Respiratory syncytial virus, strain not …, UniProt P03420, stabilised); conditions: one partner purified
T1 construct: source: FreeStyle 293-F or HeLa cells, cotransfected with furin, on the cell surface; not shown: Foldon trimerization motif, C-terminal, kept

[3] = biological target: T2, full-length wild-type RSV F on the cell surface (Respiratory syncytial virus, …, UniProt P03420); conditions: one partner purified
T2 construct: also called full-length wild-type F; full-length RSV F; source: FreeStyle 293-F or HeLa cells, cotransfected with furin, on the cell surface

[4] = biological target: T3, full-length RSV F with the DS-Cav1 stabilizing mutations, on the cell surface (Respiratory syncytial virus, strain not …, UniProt P03420, S155C | S290C | S190F | V207L); conditions: one partner purified
T3 construct: source: FreeStyle 293-F, cotransfected with furin, on the cell surface

[5] = biological target: T4, full-length RSV F with the PR-DM stabilizing mutations, on the cell surface (Respiratory syncytial virus, strain not …, UniProt P03420, N67I | S215P); conditions: one partner purified
T4 construct: source: FreeStyle 293-F, cotransfected with furin, on the cell surface

Molecule | percent of CF-647-labeled CR9501 IgG binding blocked [1] [%] | binding result [2] | binding result [3] | binding result [4] | binding result [5]
motavizumab Fab | < 20 |  |  |  | 
B1 |  | binds | binds | binds | binds
B2 |  | binds |  |  | 
